Measurements reported in PMC7017467, “Enhancement of bleomycin production in Streptomyces verticillus through global metabolic regulation of N-acetylglucosamine and assisted metabolic profiling analysis”.

T1: DasR (Streptomyces verticillus ATCC 15003, UniProt A0A7M1Y6D7 1-256)
T1 sequence: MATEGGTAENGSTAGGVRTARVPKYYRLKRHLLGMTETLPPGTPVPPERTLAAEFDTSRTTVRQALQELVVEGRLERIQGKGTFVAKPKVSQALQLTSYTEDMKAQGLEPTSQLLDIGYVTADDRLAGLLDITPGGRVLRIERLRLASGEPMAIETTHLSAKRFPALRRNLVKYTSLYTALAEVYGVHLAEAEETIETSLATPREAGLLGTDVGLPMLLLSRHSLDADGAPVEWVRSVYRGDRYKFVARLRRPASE


Target: T1, DasR
Experiment: EMSA; EMSA buffer (composition, pH and temperature not given), 30 min incubation, 6% native polyacrylamide gel
Details: protein: recombinant, tags: C-terminal 6xHis (introduced by reverse primer), chain copies: 2, blunt

| Binder | binding result | binding result (label: 5'-Cy5) |
| --- | --- | --- |
| PBlmR (dsDNA) DNA 1: GAGAGCACTGTAAGCCCGAACCCGCAAGGATGACGAATTGCAAAATTGTGCAAGTCGCTACATGATGGTCCGGCTGTGCCCGCAGGTAGCCGCGGGCACAGCACCAGACGCTGCCTCCGCGCACCGCGCGGGAGGCCCGGTGAGGCGAGAGGCTGAGGTTCC DNA 2: GGAACCTCAGCCTCTCGCCTCACCGGGCCTCCCGCGCGGTGCGCGGAGGCAGCGTCTGGTGCTGTGCCCGCGGCTACCTGCGGGCACAGCCGGACCATCATGTAGCGACTTGCACAATTTTGCAATTCGTCATCCTTGCGGGTTCGGGCTTACAGTGCTCTC | no binding | – |
| PDasA (dsDNA) DNA 1: CCAAAAGGTCTAGGCCAAGCTGCGGGCACTGGTCTAAACCATTAAAGACCACTTTTCGGTCCTGAGGAGA DNA 2: TCTCCTCAGGACCGAAAAGTGGTCTTTAATGGTTTAGACCAGTGCCCGCAGCTTGGCCTAGACCTTTTGG | – | binds |
